The chains are these.
B1: 12.1 (ssRNA)
RNA: GGGAGCUCAGAAUAAACGCUCAAAGCUGUUGGCAGCGCUGGUGAAGGGAUAGGCUUCGACAUGAGGCCCGGAUCCGGC
modifications: 5'-GMPS
B2: Trunc24 (ssRNA)
RNA: GGGGAUUAACAGGCACACCUGUUAACCCU
modifications: 5-iodouracil at all U
B3: 12.46 (ssRNA)
RNA: GGGAGCUCAGAAUAAACGCUCAAUGGACACAACUCCAUUCAUCCCGGGACCGCUGUUCGACAUGAGGCCCGGAUCCGGC
modifications: 5'-GMPS
B4: 12.47 (ssRNA)
RNA: GGGAGCUCAGAAUAAACGCUCAAUGUGUGAGUGGAUCCGUUCCCCGCCUGGUGUUCGACAUGAGGCCCGGAUCCGGC
modifications: 5'-GMPS
B5: 12.14 (ssRNA)
RNA: GGGAGCUCAGAAUAAACGCUCAAACGUCAUUCCGAGUCGGGUUCGUUCCCCGCUUCGACAUGAGGCCCGGAUCCGGC
modifications: 5'-GMPS
B6: 12.4 (ssRNA)
RNA: GGGAGCUCAGAAUAAACGCUCAACGAAUCAAUGCGCGGAUCUCAGGAUAUUCGUUCGACAUGAGGCCCGGAUCCGGC
modifications: 5'-GMPS
B7: 12.9 (ssRNA)
RNA: GGGAGCUCAGAAUAAACGCUCAAGUGGAGCUUCGUGACUUGGUCGGAGCCGUGUUCGACAUGAGGCCCGGAUCCGGC
modifications: 5'-GMPS
B8: 12.6 (ssRNA)
RNA: GGGAGCUCAGAAUAAACGCUCAAGCGGUAACAUGCUGGAUCUCAGGAAACCGCUUCGACAUGAGGCCCGGAUCCGGC
modifications: 5'-GMPS
B9: 12.45 (ssRNA)
RNA: GGGAGCUCAGAAUAAACGCUCAAGCGGUAACAUGCUGGAUCUCAGGAAACCGUUUCGACAUGAGGCCCGGAUCCGGC
modifications: 5'-GMPS
B10: 10.28 (ssRNA)
RNA: GGGAGCUCAGAAUAAACGCUCAACGUUUAGGACUCCCCCGUUCGUCGAGCGAAUUCGACAUGAGGCCCGGAUCCGGC
modifications: 5'-GMPS
B11: 12.24 (ssRNA)
RNA: GGGAGCUCAGAAUAAACGCUCAACGUCAGCGGAUCUCCAUUGCGUUAUACGGGUUCGACAUGAGGCCCGGAUCCGGC
modifications: 5'-GMPS
B12: 12.22 (ssRNA)
RNA: GGGAGCUCAGAAUAAACGCUCAAUGCCACUUUUGUUCGGAUCUUAGGAAGGCAUUCGACAUGAGGCCCGGAUCCGGC
modifications: 5'-GMPS
B13: 12.3 (ssRNA)
RNA: GGGAGCUCAGAAUAAACGCUCAACAUCACAACUUGUUGUCCUGGUCGAUGUCCUUCGACAUGAGGCCCGGAUCCGGC
modifications: 5'-GMPS

bradykinin, N-bromoacetylated (BrBK), sequence (P01042 whole entry, looked up, one chain of several): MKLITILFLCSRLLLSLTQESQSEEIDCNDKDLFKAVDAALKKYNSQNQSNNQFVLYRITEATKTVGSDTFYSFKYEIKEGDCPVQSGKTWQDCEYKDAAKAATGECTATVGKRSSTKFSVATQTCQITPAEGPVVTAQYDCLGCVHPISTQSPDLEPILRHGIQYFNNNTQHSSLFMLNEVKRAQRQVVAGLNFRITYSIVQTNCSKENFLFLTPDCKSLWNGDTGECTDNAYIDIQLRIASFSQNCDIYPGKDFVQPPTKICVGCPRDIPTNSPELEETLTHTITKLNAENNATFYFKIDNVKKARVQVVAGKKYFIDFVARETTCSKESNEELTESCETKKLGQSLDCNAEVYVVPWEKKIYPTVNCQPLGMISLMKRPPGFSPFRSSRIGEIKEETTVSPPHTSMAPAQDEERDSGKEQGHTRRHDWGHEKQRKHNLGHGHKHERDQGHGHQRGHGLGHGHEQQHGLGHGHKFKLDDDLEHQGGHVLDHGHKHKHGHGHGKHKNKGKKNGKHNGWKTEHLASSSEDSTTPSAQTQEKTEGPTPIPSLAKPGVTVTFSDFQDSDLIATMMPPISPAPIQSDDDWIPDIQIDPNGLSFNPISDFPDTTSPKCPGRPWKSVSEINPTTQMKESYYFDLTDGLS
Rev, sequence (P04618 whole entry, one chain of several): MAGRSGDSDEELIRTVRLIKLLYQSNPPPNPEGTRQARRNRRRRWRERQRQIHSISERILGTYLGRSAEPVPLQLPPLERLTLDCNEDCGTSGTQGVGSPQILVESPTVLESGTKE

The first data set deals with des-Arg9-bradykinin (UniProt P01042 P01042:381-388, des-Arg9). The data set is described as follows: competition; inhibition of reaction of 12.1 with BrBK; +/-0.5. Particulars: tags: peptide analog.
des-Arg9-bradykinin, sequence (P01042 whole entry, looked up, change not shown, one chain of several): as the sequence (P01042 whole entry, looked up, one chain of several) above
As to B1, the Ki was 2.6 mM.

The next data set addresses Rev (HIV-1, UniProt P04618 P04618:1-116). In words: EMSA; covalent complex without UV, resistant to 7M urea PAGE, in presence of human nuclear extract, on ice.
Details: not given
Here is the method: Trunc24 (SEQ ID NO:226) photo-independent crosslinking with HIV-1 Rev in the presence of human nuclear extracts was determined as follows: Trunc24 RNA, nuclear extracts, and Rev protein were combined and incubated on ice for 10 min. Samples were mixed 1:1 with 8M urea loading buffer and placed on a 7M urea, 8% polyacrylamide gel for analysis.
With B2, the binding result is “binds”.

Another data set has as its target bradykinin, N-bromoacetylated (BrBK) (UniProt P01042 P01042:381-389). The data set is described as follows: kobs covalent reaction, APM gel, 0 C, 5 mM MgCl2. Conditions: protein: synthetic; tags: synthetic peptide, N-terminal bromoacetyl. As to the method: Reverse transcription and polymerase chain reaction were carried out as reported by Schneider et al., (FASEB, 7, 201 (1993)). […] Reactions to determine $kobs$ values were carried out at 0° C. in reaction buffer (50 mM HEPES, pH 7.0, 5 mM MgCl_2, 150 mM NaCl) at 2 µM GMPS-RNA and 130 µM BrBK, with monitoring at 0, 1, 3, 10, 30, and 90 minutes. GMPS-RNA was denatured at 70° C. for 3 minutes and allowed to slow cool at room temperature prior to dilution to final reaction buffer conditions, transfer to ice, and addition of BrBK. Reactions were quenched on ice with 235 mM sodium thiosulfate and run on a denaturing 7 M urea 8% polyacrylamide APM gel. $kobs$ values were determined as the negative slope of the linear range of data points from plots relating the concentration of unreacted GMPS- RNA vs. time. Round 10 and round 12 pools were used for cloning and sequencing.
The molecule B3 had an activity of 0.00067 s⁻¹.
Same read-out and setting: the value for B4 was 0.00149 s⁻¹; that for B5 was 0.0017 s⁻¹.
Still for that read-out and setting: the value for B6 was 0.0017 s⁻¹; that for B7 was 0.00128 s⁻¹.
As for B8, the activity came out at 0.0022 s⁻¹.
Regarding B9, the activity was found to be 0.0051 s⁻¹.
For B10, the activity came to 0.0018 s⁻¹.
The same measure, in the same setting: the value for B11 was 0.00144 s⁻¹; that for B12 was 0.0012 s⁻¹; that for B13 was 0.00075 s⁻¹.

In a further data set the target is bradykinin (BK) (UniProt P01042 P01042:381-389). The data set is described as follows: competition; inhibition of reaction of 12.1 with BrBK; +/-60. Conditions: tags: native peptide.
bradykinin (BK), sequence (P01042 whole entry, looked up, one chain of several): as above
B1 displayed a Ki of 0.14 mM.

The term Ki denotes a dissociation constant, usually derived from enzyme kinetics or from competition with a known ligand. A lower Ki goes with higher affinity.

The values are drawn from patent US5998142, “Systematic evolution of ligands by exponential enrichment: chemi-SELEX” (NeXstar Pharmaceuticals, Inc.).
